Measured values published in patent publication US20250027068.
Residue numbers refer to the chain shown, from its start.

B1: PRT-562 (protein)
chain: MANQEIRYSKATPSHITSVWTKGVTPPEQFIQNEDVLHAPYIANQGWYDITKTFNGKDDLLCGAATAGNMLHWWFDQNKEQIENYLKKHPEKQKINFNGEQMFDVKEAIDTKDSQTNSALFSYFKDKAFPYLSTKHLGVFPDHVIDMFINGYRLSLTNHGPTPVKEQTKDPRGGIFDAVFTRGDQSKLLTSRHDFKEKTLNEISQLIKQELTEGKALGLSHTYANVRINHVINLWGADFNAEGNLEAIYVTDSDSNASIGMKKYYVGVNSAGKVAISAKEIEGDNIGAQVLGLFTLSTGQDIWQQTNLEHHHHHH
B2: PRT-569 (protein)
chain: B1 chain with Q32Y
B3: PRT-41 (protein)
chain: MANQEIRYSEVTPYHVTSVWTKGVTPPANFTQGEDVFHAPYVANQGWYDITKTFNGKDDLLCGAATAGNMLHWWFDQNKDYIDRYLEEHPEKQKINFNGEQMFDVKEAIDTKNSQLDSKLFEYFKEKAFPYLSTKHLGVFPDLVLDMFINGYRLSLTNHGPTPVKEGSKDPRGGIFDAVFTRGDQSKLLTSRHDFKEKNLKEISDLIKKELTEGKALGLSHTYANVRINHVINLWGADFDSNGNLKAIYVTDSDSNASIGMKKYFVGVNSAGKVAISAKEIKEDNIGAQVLGLFTLSTGQDSWNQTN
B4: PRT-536 (protein)
chain: MANQEIRYSGDSEWANKKVWVYGITPAEEGAWLYSTYYLPWKKEYGWYDCNKRNPTADGMMCWAASASNLMHWWIAQNKRYIDLYGDRYKGPDKINFNGEQMFDVKEYIDPLDKPQESDIFQCFIDKSFADLSTKHEAGKGDEGINWFIHGIIPSYPAHGPTPVKLRYPYNPAGYFKDVFPRGDGVVLGGNNGDFKELGKERFNETIKDALANKKGIGLSIGPVNVRKSHVETMWGAEFDENGDVSYIYMADNNDRWGVGCIRLQIVYVEGATYTCYKTEIIPSDRPIPINRLVTVELGEEYWKQTNLEHHHHHH
B5: PRT-287 (protein)
chain: MVTSVWTKGVTPPAKFTQGEDVFHAPYVANQGWYDITKEFNGKDDLLCGAATAGNMLHWWFDQNKEKIEAYLKKHPDKQKIMFGDQELLDVRKVINTKGDQTNSELFNYFRDKAFPNLSARRIGVMPDLVLDMFINGYYLNVYKTQTTDVNRTYQEKDRRGGIFDAVFTRGDQSKLLTSRHDFKEKNLKEISDLIKKELTEGKALGLSHTYANVRIGHVINLWGADFDSNGNLKAIYVTDSDSNASIGMKKYGVGVNSAGKVAISAKEIKEDNIGAQVLGLFTLSTGQDSWNQTN
B6: PRT-540 (protein)
chain: MANQEIRYSKNENPNVTIKWVHGIGEPTQAEKEKIEFYWYETNTTKFFNNRKVTHLGDSNQCWAKTASNMLHWWFVQNKENINKYIEKKNITGKINFNGEQMFDVKEGIDDNQEKEKSYIANTFRTKKAHNLSTKHKGDYIINGLAWYLYGLNNFKNAHGPTPVKKKPKFYGPALFKDVFNRGDGNTPIIEETDFKEYTKKEFEDTLSEALDSKKAIGINIYGSNVDYGHAITLWGAAFDEDENIIAIYVVDNNFKFENRIFPYGIWYEKEGRPYLFNYEINSFVKNRYVGEITTLDKGEAQWQETNLEHHHHHH
B7: PRT-546 (protein)
chain: MANQEIRYSEETPKTITSVWTKGVTPPTDFIKNEDVLHAPYIANQGWYDITKTFNGKDDLLCGAATAGNMLHWWFDQNKEEIENYLKKHPEKQKINFNGEQMFDVKEAIDTKDSQTDSALFEYFKDKAFPYLSTKHLGVFPDHVIDMFINGYRLSLTNHGPTPVKRGTKDPRGGIFDAVFTRGDQSKLLTSRHDFKEKTLNEISDLIKQELTEGKALGLSHTYANVRINHVINLWGADFNSEGNLEAIYVTDSDSNASIGMKKYYVGVNSAGKVAISAKEIEGDNIGAQVLGLFTLSTGQDIWEQTNLEHHHHHH
B8: PRT-551 (protein)
chain: B7 chain with K14S, K32Q, S191A, S270A, E304N
B9: PRT-592 (protein)
chain: B7 chain with K14S, K32Q, E81Q, D113N, S241A, E304N
B10: PRT-560 (protein)
chain: B7 chain with K32Y, E81Q, N84R, G167Q, N201K, N240D, S241A
B11: PRT-548 (protein)
chain: B7 chain with S186T, S191A, S270A
B12: PRT-591 (protein)
chain: B7 chain with K14S, K32Q, E81Q, E83K, S241A, E304N
B13: PRT-593 (protein)
chain: B7 chain with K14S, K32Q, E81Q, S114H, S241A, E304N
B14: PRT-530 (protein)
chain: MANQEIRYSEETPKTITSVWTKGVTPPTDFIQNEDVLHAPYIANQGWYDITKTFNGKDDLLCGAATAGNMLHWWFDQNKEEIENYLKKHPEKQKINFNGEQMFDVKEAIDTKDSQTDSALFEYFKDKAFPYLSTKHLGVMPDLVLDMFINGYYLSVGKHGPTPVKRGTKDPRGGIFDAVFTRGDQSKLLTARHDFKEKTLNEISDLIKQELTEGKALALSHTYANVRINHVINLWGADFNSEGNLEAIYVTDSDSNASIGMKKYYVGVNAAGKVAISAKEIEGDNIGAQVLGLFTLSTGQDIWEQTNLEHHHHHH
B15: PRT-279 (protein)
chain: MVTSVWTKGVTPPTDFIYGEDVLHAPYKAGQGWYDITKLFNGKDNLLCGAATAGNMLHWWFDQNKEQIENYLKKHPEKQKIIFNNQELFDLKAAIDTKDSQLDSKLFEYFLEKAFPYLSTKHLGVFPDHVIDMFINGYRLSLTNHGPTPVKRGSKDKRGGIFDAVFTRGVQSKLLTNRHDLKNKTLKEISDLIKQELTEGKALGISHTYANVRINHVINLWGADFDAEGNLEAIAVTDSDTNASIGMKKYFVGVNSSGKVAISAKEIEEDNIGAQVLGLFTLSTGQDIWNQTN
B16: PRT-535 (protein)
chain: MANQEIRYSGDSEWANKKVWVYGITPPEEKAWFYSTYYLPWKKEYGWYDCNKRNPTADGMMCWAATASNLMHWWIAQNKEYIDLYGDKYKGPDKINFNGEQMFDVKEYIDPLDKPQESDIFQCFIDKAFADLSTKHEAGKGDEGINWFIHGIIPSYPAHGPTPVKLRYPYNPAGYFKDVFPRGDGVVLLGNNGDFKELGKERFNETIKDALANKKGIGLSIGPVNVRSSHVVTMWGAEFDENGDVSYIYMADNNDRWGVGCIRYQIVYVEGGTYTCYKTEIIGSDRPIPINRLVTLELGEEYWKQTNLEHHHHHH
B17: PRT-537 (protein)
chain: B16 chain with G10S, K30G, T66S, M71L, A128S, E143A, Y156S, M234I, V269E, G283P

Molecular target: pooled human IgG

Protein | Enzyme Activity Endpoint Assay: Fab′2 | Enzyme Activity Endpoint Assay: Fc | Enzyme Activity Endpoint Assay: IgG | Enzyme Activity Endpoint Assay: scIgG
B1 | 705 ng/µL | 380 ng/µL | 0 ng/µL | 238 ng/µL
B2 | 723 ng/µL | 294 ng/µL | 0 ng/µL | 0 ng/µL
B3 | 24 ng/µL | 94 ng/µL | 19 ng/µL | 50 ng/µL
B4 | 0 ng/µL | 0 ng/µL | 1530 ng/µL | 0 ng/µL
B5 | 700 ng/µL | 392 ng/µL | 0 ng/µL | 0 ng/µL
B6 | 0 ng/µL | 0 ng/µL | 1490 ng/µL | 0 ng/µL
B7 | 722 ng/µL | 390 ng/µL | 0 ng/µL | 236 ng/µL
B8 | 444 ng/µL | 217 ng/µL | 0 ng/µL | 0 ng/µL
B9 | 664 ng/µL | 359 ng/µL | 0 ng/µL | 0 ng/µL
B10 | 210 ng/µL | 233 ng/µL | 41 ng/µL | 312 ng/µL
B11 | 727 ng/µL | 458 ng/µL | 0 ng/µL | 0 ng/µL
B12 | 0 ng/µL | 34 ng/µL | 671 ng/µL | 0 ng/µL
B13 | 797 ng/µL | 396 ng/µL | 0 ng/µL | 0 ng/µL
B14 | 87 ng/µL | 225 ng/µL | 74 ng/µL | 687 ng/µL
B15 | 574 ng/µL | 359 ng/µL | 48 ng/µL | 0 ng/µL
B16 | 6 ng/µL | 0 ng/µL | 1530 ng/µL | 0 ng/µL
B17 | 0 ng/µL | 0 ng/µL | 1000 ng/µL | 0 ng/µL
